The values below come from US20260242478A1 (published 2026).

Where no end group is shown, it is not given here.

Test [1] concerns the target T1, Anti-PSMA Fab (SEQ ID NOs: 19, 20).
T1 construct: Biotinylated PSMA Fab captured on neutravidin coated plates in the phage ELISA; also called 006 PSMA Fab
Put plainly: phage binding ELISA; biotinylated PSMA Fab on neutravidin plate, clonal phage supernatant, anti-M13 HRP detection. (In general: In an ELISA, binding on a coated surface is turned into a signal by an enzyme label.)
Method: (§1) Clonal phage were harvested as crude supernatants and screened via standard ELISAs. […] Prior to the addition of clonal phage. wells were incubated with blocking buffer and PSMA antigen or blocking buffer alone. Without washing or aspirating, clonal phage supernatants were then added to the wells and incubated for a short time. Wells were then washed followed by detection of bound phage using a horse radish conjugated anti-M13 antibody.

Test [2] has the same target. Put plainly: phage binding ELISA; PSMA Fab on plate pre-incubated with PSMA antigen as competitor, anti-M13 HRP detection.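 Further: crude clonal phage supernatants added without washing to wells preincubated with PSMA in blocking buffer, compared with wells receiving blocking buffer only, then bound phage detected.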
Method: as §1
For test [3], the target named is T2, Anti-PSMA Fab (SEQ ID NOs: 19, 20).
T2 construct: In the phage ELISA the Fab was biotinylated and captured on neutravidin coated plates; also called 006 PSMA Fab
The test can be described thus: phage ELISA; biotinylated PSMA Fab on neutravidin plate, clonal phage supernatant, anti-M13 HRP detection.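 Further: wells preincubated with PSMA antigen in blocking buffer or with blocking buffer only before clonal phage were added for a short incubation, then bound phage detected.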
Method: as §1

The target is the same in test [4]. The test can be described thus: phage ELISA; PSMA Fab on plate pre-incubated with PSMA antigen as competitor, anti-M13 HRP detection.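 Further: crude clonal phage supernatants added to Fab-coated wells still holding PSMA antigen in blocking buffer, with bound phage as read-out.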
Method: as §1
For test [5], the target named is T3, Anti-PSMA Fab (SEQ ID NOs: 19, 20).
T3 construct: Biotinylated and captured on neutravidin coated plates in the phage ELISA; also called 006 PSMA Fab
The test can be described thus: phage binding ELISA; biotinylated anti-PSMA Fab captured on neutravidin, bound phage detected with anti-M13 HRP.
Method: as §1

Test [6] shares this target. Put plainly: phage binding ELISA on captured anti-PSMA Fab; PSMA antigen as competitor.
Method: as §1

B1: Phage-1831 (peptide)
peptide: IIPWCKPAWMCSGM
notes: tested as crude clonal phage supernatant
Regarding B1, in test [1], the “Anti-PSMA Fab (SEQ ID NOs: 19, 20) signal” value was 2.29. The “Anti-PSMA Fab signal in the presence of PSMA” value in test [2] stood at 0.275.

B2: Phage-1849 (peptide)
peptide: FSHWCIPEWMCSTS
modifications: cysteine pairing not given here; also: displayed on phage as pIII fusion, pIII and linker sequences not given here
notes: Clone of the Peptide-180 library
With B2, the “Phage binding ELISA, Anti-PSMA Fab signal” value in test [3] was determined as 2.18. Further, in test [4], the “Phage binding ELISA, Anti-PSMA Fab signal in the presence of PSMA” value (“Phage binding ELISA … of PSMA” below) came to 0.158.

B3: Phage-1848 (peptide)
peptide: AIPWCIPAWMCQVF
modifications: cysteine pairing not given here; also: displayed on phage as pIII fusion, pIII and linker sequences not given here
notes: as for B2
Take B3: in test [3], the “Phage binding ELISA, Anti-PSMA Fab signal” value was 2.18. Moreover, the “Phage binding ELISA … of PSMA” value in test [4] turned out to be 0.234.

B4: Phage-1840 (peptide)
peptide: MVKWCIPSWMCDSV
notes: as for B1
As to B4, in test [1], the “Anti-PSMA Fab (SEQ ID NOs: 19, 20) signal” value was found to be 2.23. In test [2], the “Anti-PSMA Fab signal in the presence of PSMA” value was found to be 0.109.

For LEKLCKPAWMCVNF [Phage-1788 (clonal phage displaying the peptide of SEQ ID NO: 2084)], the “Anti-PSMA Fab (SEQ ID NOs: 19, 20) signal” value in test [5] is 1.66. In addition, the “Anti-PSMA Fab signal in the presence of PSMA” value in test [6] amounted to 0.107.

B5: Phage-1847 (peptide)
peptide: SMHWCTPKWMCEGL
modifications: cysteine pairing not given here; also: displayed on phage as pIII fusion, pIII and linker sequences not given here
notes: as for B2
For the molecule B5, in test [3], the “Phage binding ELISA, Anti-PSMA Fab signal” value was determined as 2.2. For the same molecule, the “Phage binding ELISA … of PSMA” value in test [4] came out at 0.147.

B6: Phage-1842 (peptide)
peptide: VERWCVPEWMCHWI
notes: as for B1
B6: the “Anti-PSMA Fab (SEQ ID NOs: 19, 20) signal” value in test [1] stood at 2.23. Further, the “Anti-PSMA Fab signal in the presence of PSMA” value in test [2] came out at 0.0977.

As to IDIRCTPIWMCVGF [Phage-1789 (clonal phage displaying the peptide of SEQ ID NO: 2085)], the “Anti-PSMA Fab (SEQ ID NOs: 19, 20) signal” value in test [5] turned out to be 1.57. Also, the “Anti-PSMA Fab signal in the presence of PSMA” value in test [6] worked out at 0.0801.

B7: Phage-1851 (peptide)
peptide: SEMLCKPSWMCLGF
modifications: cysteine pairing not given here; also: displayed on phage as pIII fusion, pIII and linker sequences not given here
notes: as for B2
On to B7, for which, in test [3], the “Phage binding ELISA, Anti-PSMA Fab signal” value is 2.17. In addition, in test [4], the “Phage binding ELISA … of PSMA” value was 0.0726.

B8: Phage-1844 (peptide)
peptide: TDKLCIPEWMCINW
notes: as for B1
Take B8: the “Anti-PSMA Fab (SEQ ID NOs: 19, 20) signal” value in test [1] stood at 2.22. Besides, the “Anti-PSMA Fab signal in the presence of PSMA” value in test [2] was determined as 0.0602.

B9: Phage-1838 (peptide)
peptide: VMKWCIPVWMCGGM
notes: as for B1
Consider B9, for which the “Anti-PSMA Fab (SEQ ID NOs: 19, 20) signal” value in test [1] came out at 2.26. Further, the “Anti-PSMA Fab signal in the presence of PSMA” value in test [2] turned out to be 0.291.

B10: Phage-1836 (peptide)
peptide: WLPMCRPAWMCAGL
modifications: cysteine pairing not given here; also: displayed on phage as pIII fusion, pIII sequence and linker not given here
notes: as for B1
For the molecule B10, the “Anti-PSMA Fab (SEQ ID NOs: 19, 20) signal” value in test [1] was 2.27. Moreover, the “Anti-PSMA Fab signal in the presence of PSMA” value in test [2] came out at 0.0653.

B11: Phage-1832 (peptide)
peptide: MGKWCIPEWMCNVS
notes: as for B1
On to B11, for which, in test [1], the “Anti-PSMA Fab (SEQ ID NOs: 19, 20) signal” value worked out at 2.29. For the same molecule, in test [2], the “Anti-PSMA Fab signal in the presence of PSMA” value was 0.0652.

As for LEKTCIPTWMCVGF [Phage-1784 (clonal phage displaying the peptide of SEQ ID NO: 2080)], the “Anti-PSMA Fab (SEQ ID NOs: 19, 20) signal” value in test [5] came to 1.88. For the same molecule, in test [6], the “Anti-PSMA Fab signal in the presence of PSMA” value is 0.0732.

B12: Phage-1852 (peptide)
peptide: WDHWCTPAWMCEFV
modifications: cysteine pairing not given here; also: displayed on phage as pIII fusion, pIII and linker sequences not given here
notes: as for B2
Consider B12, for which the “Phage binding ELISA, Anti-PSMA Fab signal” value in test [3] amounted to 2.17. For the same molecule, in test [4], the “Phage binding ELISA … of PSMA” value came to 0.0692.

As to DVKLCKPEWMCYGL [Phage-1786 (clonal phage displaying the peptide of SEQ ID NO: 2082)], the “Anti-PSMA Fab (SEQ ID NOs: 19, 20) signal” value in test [5] stood at 1.75. Besides, the “Anti-PSMA Fab signal in the presence of PSMA” value in test [6] is 0.0637.

B13: Phage-1850 (peptide)
peptide: PTKLCIPEWMCYVR
modifications: cysteine pairing not given here; also: displayed on phage as pIII fusion, pIII and linker sequences not given here
notes: as for B2
As to B13, in test [3], the “Phage binding ELISA, Anti-PSMA Fab signal” value came to 2.17. Also, the “Phage binding ELISA … of PSMA” value in test [4] amounted to 0.0692.

On to VVKACIPTWMCQFV [Phage-1779 (clonal phage displaying the peptide of SEQ ID NO: 2075)], for which the “Anti-PSMA Fab (SEQ ID NOs: 19, 20) signal” value in test [5] came out at 2.02. For the same molecule, in test [6], the “Anti-PSMA Fab signal in the presence of PSMA” value worked out at 0.0901.

As to DLRLCKPAWMCDFI [Phage-1781 (clonal phage displaying the peptide of SEQ ID NO: 2077)], in test [5], the “Anti-PSMA Fab (SEQ ID NOs: 19, 20) signal” value stood at 1.95. In addition, in test [6], the “Anti-PSMA Fab signal in the presence of PSMA” value amounted to 0.0601.

B14: Phage-1835 (peptide)
peptide: YEKWCVPDWMCSMI
notes: as for B1
Consider B14, for which the “Anti-PSMA Fab (SEQ ID NOs: 19, 20) signal” value in test [1] worked out at 2.28. Besides, the “Anti-PSMA Fab signal in the presence of PSMA” value in test [2] was found to be 0.0678.

B15: Phage-1846 (peptide)
peptide: PSMRCIPEWMCAML
modifications: cysteine pairing not given here; also: displayed on phage as pIII fusion, pIII and linker sequences not given here
notes: as for B2
For the molecule B15, the “Phage binding ELISA, Anti-PSMA Fab signal” value in test [3] stood at 2.2. In test [4], the “Phage binding ELISA … of PSMA” value turned out to be 0.0824.

B16: Phage-1841 (peptide)
peptide: TDKWCIPPWMCMLQ
notes: as for B1
Regarding B16, the “Anti-PSMA Fab (SEQ ID NOs: 19, 20) signal” value in test [1] came out at 2.23. In addition, the “Anti-PSMA Fab signal in the presence of PSMA” value in test [2] stood at 0.0865.

B17: Phage-1833 (peptide)
peptide: DIPWCIPPWMCAGS
modifications: cysteine pairing not given here; also: displayed on phage as pIII fusion, pIII sequence and linker not given here
notes: as for B1
As for B17, in test [1], the “Anti-PSMA Fab (SEQ ID NOs: 19, 20) signal” value turned out to be 2.28. Besides, the “Anti-PSMA Fab signal in the presence of PSMA” value in test [2] was determined as 0.112.

On to GEKWCIPDWMCSGF [Phage-1783 (clonal phage displaying the peptide of SEQ ID NO: 2079)], for which the “Anti-PSMA Fab (SEQ ID NOs: 19, 20) signal” value in test [5] is 1.91. The “Anti-PSMA Fab signal in the presence of PSMA” value in test [6] is 0.148.

As to VTKWCIPPWMCEVT (also called Peptide-230) [Phage-1780 (clonal phage displaying the peptide of SEQ ID NO: 2076)], the “Anti-PSMA Fab (SEQ ID NOs: 19, 20) signal” value in test [5] amounted to 2. The “Anti-PSMA Fab signal in the presence of PSMA” value in test [6] worked out at 0.0864.

B18: Phage-1839 (peptide)
peptide: YDILCRPSWMCSWV
notes: as for B1
On to B18, for which the “Anti-PSMA Fab (SEQ ID NOs: 19, 20) signal” value in test [1] was 2.24. Besides, the “Anti-PSMA Fab signal in the presence of PSMA” value in test [2] amounted to 0.145.

B19: Phage-1853 (peptide)
peptide: MEKWCIPEWMCLHT
modifications: cysteine pairing not given here; also: displayed on phage as pIII fusion, pIII and linker sequences not given here
notes: as for B2
For the molecule B19, the “Phage binding ELISA, Anti-PSMA Fab signal” value in test [3] is 2.17. Moreover, the “Phage binding ELISA … of PSMA” value in test [4] was found to be 0.0816.

Turning to ISKWCIPEWMCTSP [Phage-1787 (clonal phage displaying the peptide of SEQ ID NO: 2083)], in test [5], the “Anti-PSMA Fab (SEQ ID NOs: 19, 20) signal” value stood at 1.73. Besides, the “Anti-PSMA Fab signal in the presence of PSMA” value in test [6] stood at 0.107.

B20: Phage-1837 (peptide)
peptide: GLNWCTPTWMCQGF
notes: as for B1
Consider B20, for which the “Anti-PSMA Fab (SEQ ID NOs: 19, 20) signal” value in test [1] came out at 2.26. For the same molecule, the “Anti-PSMA Fab signal in the presence of PSMA” value in test [2] is 0.0833.

B21: Phage-1834 (peptide)
peptide: VERMCMPAWMCDMF
notes: as for B1
Regarding B21, the “Anti-PSMA Fab (SEQ ID NOs: 19, 20) signal” value in test [1] turned out to be 2.28. Further, the “Anti-PSMA Fab signal in the presence of PSMA” value in test [2] was 0.0862.

B22: Phage-1845 (peptide)
peptide: FTNWCTPEWMCSGF
notes: as for B1
With B22, the “Anti-PSMA Fab (SEQ ID NOs: 19, 20) signal” value in test [1] was found to be 2.21. Further, in test [2], the “Anti-PSMA Fab signal in the presence of PSMA” value amounted to 0.0826.

B23: Phage-1843 (peptide)
peptide: LDRWCIPEWMCEMF
notes: as for B1
B23: in test [1], the “Anti-PSMA Fab (SEQ ID NOs: 19, 20) signal” value came out at 2.22. For the same molecule, the “Anti-PSMA Fab signal in the presence of PSMA” value in test [2] stood at 0.0928.

As for VEKLCTPIWMCLGF [Phage-1785 (clonal phage displaying the peptide of SEQ ID NO: 2081)], in test [5], the “Anti-PSMA Fab (SEQ ID NOs: 19, 20) signal” value is 1.84. Moreover, in test [6], the “Anti-PSMA Fab signal in the presence of PSMA” value was determined as 0.0705.

For LDKWCVPKWMCSGL [Phage-1782 (clonal phage displaying the peptide of SEQ ID NO: 2078)], the “Anti-PSMA Fab (SEQ ID NOs: 19, 20) signal” value in test [5] worked out at 1.92. Moreover, the “Anti-PSMA Fab signal in the presence of PSMA” value in test [6] was 0.0742.
